Test results as given in patent publication EP1644415B1 (Genetics Institute, LLC, dated 2010).

B2: human IL-22 with N terminal His/Flag tag (ligand)
chain: GSGHHHHHHGSGDYKDDDDKAPISSHCRLDKSNFQQPYITNRTFMLAKEASLADNNTDVRLIGEKLFHGVSMSERCYLMKQVLNFTLEEVLFPQSDRFQPYMQEVVPFLARLSNRLSTCHIEGDDLHIQRNVQKLKDTVKKLGESGEIKAIGELDLLFMSLRNACI
modifications: biotinylated with EZ-Link Sulfo-NHS-Biotin where used in ELISA (bio-IL-22); not biotinylated in Biacore and cell assays
notes: Made in CHO cells, extensively glycosylated; also called hIL-22; huIL-22
B3: human IL-22 binding protein-Fc fusion (Fc fusion)
chain: TQSTHESLKPQRVQFQSRNFHNILQWQPGRALTGNSSVYFVQYKIYGQRQWKNKEDCWGTQELSCDLTSETSDIQEPYYGRVRAASAGSYSEWSMTPRFTPWWETKIDPPVMNITQVNGSLLVILHAPNLPYRYQKEKNVSIEDYYELLYRVFIINNSLEKEQKVYEGAHRAVEIEALTPHSSYCVVAEIYQPMLDRRSQRSEERCVEIPAGSGSGSG
notes: Fc fusion homodimer, used as CHO conditioned medium; also called IL-22BP-Fc; hIL-22BP-Fc; not shown: human IgG1 Fc
B4: human IL-22R extracellular domain-Fc fusion homodimer (Fc fusion)
chain: HAPEDPSDLLQHVKFQSSNFENILTWDSGPEGTPDTVYSIEYKTYGERDWVAKKGCQRITRKSCNLTVETGNLTELYYARVTAVSAGGRSATKMTDRFSSLQHTTLKPPDVTCISKVRSIQMIVHPTPTPIRAGDGHRLTLEDIFHDLFYHLELQVNRTYQMHLGGKQREYEFFGLTPDTEFLGTIMICVPTWAKESAPYMCRVKTLPDRTWTAGSGSGSG
notes: extracellular domain; Used as CHO conditioned medium, not purified; also called IL-22R-Fc; IL-22RECD-Fc; not shown: human IgG1 Fc

Key:
[1] = target: B4; test: ELISA, IL-10R2-Fc added to captured IL-22R-Fc before bio-IL-22 (Figure 9A)
[2] = target: T1, human IL-22R-Fc/IL-10R2-Fc heterodimer (human, UniProt Q8N6P7 16-228; Q08334 20-220); test: ELISA, 50 ng/ml total Fc captured on anti-human IgG, bio-IL-22 titrated (Figure 8A)
T1 construct: extracellular domain; Used as conditioned medium of CHO cells co-expressing both fusions; also called IL-22R/IL-10R2-Fc heterodimer; IL-22R-Fc/IL-10R2-Fc complex; not shown: human IgG1 Fc
T1 sequence 1: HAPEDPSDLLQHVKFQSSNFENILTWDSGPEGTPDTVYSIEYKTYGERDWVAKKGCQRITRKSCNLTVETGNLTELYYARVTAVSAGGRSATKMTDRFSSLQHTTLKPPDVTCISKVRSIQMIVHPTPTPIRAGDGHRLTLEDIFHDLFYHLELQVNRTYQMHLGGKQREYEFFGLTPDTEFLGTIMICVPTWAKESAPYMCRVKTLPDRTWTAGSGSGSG
T1 sequence 2: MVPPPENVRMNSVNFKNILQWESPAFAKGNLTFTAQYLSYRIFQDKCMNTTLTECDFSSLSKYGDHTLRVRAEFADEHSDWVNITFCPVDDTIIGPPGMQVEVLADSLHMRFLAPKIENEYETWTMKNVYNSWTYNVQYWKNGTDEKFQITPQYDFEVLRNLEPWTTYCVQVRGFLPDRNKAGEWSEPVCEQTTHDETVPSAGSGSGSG

[3] = target: B3; test: Biacore, IL-22BP-Fc from conditioned medium captured by anti-human IgG, IL-22 injected, 1:1 model
[4] = target: B4; test: ELISA, IL-22R-Fc captured on anti-human IgG, bio-IL-22 titrated (Figure 6A)
[5] = target: T1, human IL-22R-Fc/IL-10R2-Fc heterodimer; test: ELISA, 50 ng/ml total Fc of co-expressing CHO CM captured, bio-IL-22 5 ng/ml, no antibody (Figure 10C)
[6] = target: B4; test: Biacore, receptor-Fc from conditioned medium captured by anti-human IgG, IL-22 injected, 1:1 model
[7] = target: T1, human IL-22R-Fc/IL-10R2-Fc heterodimer; test: as above
[8] = target: B2; test: competition ELISA: IL-22BP-Fc pre-incubated with bio-IL-22 30 ng/ml, binding to captured IL-22R-Fc (Figure 11A)
[9] = target: B2; test: competition ELISA: IL-22BP-Fc pre-incubated with bio-IL-22 5 ng/ml, binding to captured IL-22R/IL-10R2-Fc heterodimer (Figure 11B)
[10] = target: B2; test: ELISA, bio-IL-22 on streptavidin plates, IL-22R-Fc titrated (Figure 6B)

B1: human IL-10R2 extracellular domain-Fc fusion homodimer (Fc fusion)
chain: MVPPPENVRMNSVNFKNILQWESPAFAKGNLTFTAQYLSYRIFQDKCMNTTLTECDFSSLSKYGDHTLRVRAEFADEHSDWVNITFCPVDDTIIGPPGMQVEVLADSLHMRFLAPKIENEYETWTMKNVYNSWTYNVQYWKNGTDEKFQITPQYDFEVLRNLEPWTTYCVQVRGFLPDRNKAGEWSEPVCEQTTHDETVPSAGSGSGSG
notes: extracellular domain; Used as CHO conditioned medium, not purified; also called IL-10R2-Fc; IL-10R2ECD-Fc; not shown: human IgG1 Fc
Q: Does B1 bind [1]?
A: no binding

Q: B2 was tested. Which fold less bio-IL-22 needed for a comparable signal than with immobilized IL-22R-Fc homodimer [2] did it give?
A: 8 fold

Q: And the Kd [3]?
A: 3.37 nM

Q: What about the EC50 [4] of the same binder?
A: 0.02 µg/mL

Q: What about the ELISA signal (absorbance at 450 nm) [5] of the same binder?
A: 2.5

Q: What about the Kd [6] of the same binder?
A: 41 nM

Q: What about the Kd [7] of the same binder?
A: 1.48 nM

Q: What does the source list for B3?
A: IC50 [8]: 4 nM; IC50 [9]: 2 nM

Q: For B4, which EC50 [10] is on record?
A: 0.006 µg/mL
